# Laboratory results reported in the DeepSol protein solubility set.
# Experiment: soluble on expression in E. coli; label from the status in PepcDB or PDB records
row,Sequence,soluble on expression in E. coli
1,MSLQSFRVQCPTSTITHNPNSNFPGGIKCQQISGGDGYSTMADGVQTYMFSFGPLSGLADIRNGLPGTQPASIFNTLGNPYTDTTFNGAVGLTPDPDSVPPNQIDGHVDPRPIMDIGVMNGNIPAPLMAIDEDDEFFLTLTNVGMIMRPDLFERHTVHFHGYPNASSFYDGVPDASVAINIGGSFTYYYLAPDAGTYFWHCHITPPEHLQMGMVGQIYVRPRQDRVPAGAALYTALVGQQADLRTACGTTDVLCSTPLPPTNAVKRLNNKNGTPTLYAYNDGDGSTAYDVEYPIQIHGFDPNFHFIGMTFNPEPFTDMKDKYFMLNGRSYPDTITPGPMTTPSSDGALHYSQPLPTVINIPAGGKALLRISNLDVTEYQTLASLGIPMHVIGINARLLRDMAGGDMTYYANSITLGGGESLDVLLDASDTSSYPRGSTFYLYTPNLDHLSNDAENFGGLMTEVHICGAVDPATKQCTEGHHHHHH,not soluble
2,MVINSPEKEDTALILYTSGTTGKPKGVMLTFDNILANVDSLDVYKMYEETDVTIALLPLHHILPLLGTGVMPLLYSATIVFLEDISSVALIDAMKKYKGTMMIGVPKLWEVMHKKIMDTINSKAITRFIFKLAKKVNSLSFSKLIFKKVSEGFGGHIKFFVSGGSKLNPQITKDFYTLGIKICEGYGMTETSPIISYTPKNNIVFDSAGKLEHHHHHH,not soluble
3,MNKRIVICADGTWNRPEKDLKVDFPTNVLRLARAISPIAADGKPQQVFYDWGVGSYYDEVIGGATGRGLHKNIMDGYRYIVQNYSPGDEIYLFGFSRGAYTVRCLCGLINNCGILKRPEARLIQQAFDHYKKSSAPFAPSGDKSVEFRHEHCHESREIKFVGVWDTVGAMGIPISFLGLFEDKDEFYDTKIGRNVRVARHALAIDEHRSDFEPTIWQLRDNMDMQQVWFAGAHSNVGGSYLPDKDGSLLSDNALAWMIAEAERFNLSLEPHLTAGLEHHHHHH,not soluble
4,MLNYTGLENKNVLVVGLAKSGYEAAKLLSKLGANVTVNDGKDLSQDAHAKDLESMGISVVSGSHPLTLLDNNPIIVKNPGIPYTVSIIDEAVKRGLKILTEVELSYLISEAPIIAVTGTNGKTTVTSLIGDMFKKSRLTGRLSGNIGYVASKVAQEVKPTDYLVTELSSFQLLGIEKYKPHIAIITNIYSAHLDYHENLENYQNAKKQIYKNQTEEDYLICNYHQRQVIESEELKAKTLYFSTQQEVDGIYIKDGFIVYKGVRIINTEDLVLPGEHNLENILAAVLACILAGVPIKAIIDSLTTFSGIEHRLQYVGTNRTNKYYNDSKATNTLATQFALNSFNQPIIWLCGGLDRGNEFDELIPYMENVRAMVVFGQTKAKFAKLGNSQGKSVIEANNVEDAVDKVQDIIEPNDVVLLSPACASWDQYSTFEERGEKFIERFRAHLPSY,not soluble
5,MEQTTIDGISLSLAGPVELTLRWVGQDELLKQLLAAWMVIDEKDIPFNPRLIGKPGVGKTTLAYAAARRLDRPVYLFQATMDTRPEDLIITPVIGPDGKIQYAASALVSAMLKGGVLILDEGNRMSEKAWASLAPLLDDRRYVESIITGLRVPAHRDFRIVVTMNEDSSTFEVPEYIHSRLQPQIFIDFPEADEELLILKENLPFAPSRILAYVVDFLQRAHAADELYSVRDGINIARYALKMMAATERDSVELLPLAVERVLGDEALRYLKLEHHHHHH,not soluble
6,MAHHHHHHSLDASTLFKKVKVKRVLGSLEQQIDDITTDSRTAREGSIFVASVGYTVDSHKFCQNVADQGCKLVVVNKEQSLPANVTQVVVPDTLRVASILAHTLYDYPSHQLVTFGVTGTNGKTSIATMIHLIQRKLQKNSAYLGTNGFQINETKTKGANTTPETVSLTKKIKEAVDAGAESMTLEVSSHGLVLGRLRGVEFDVAIFSNLTQDHLDFHGTMEAYGHAKSLLFSQLGEDLSKEKYVVLNNDDSFSEYLRTVTPYEVFSYGIDEEAQFMAKNIQESLQGVSFDFVTPFGTYPVKSPYVGKFNISNIMAAMIAVWSKGTSLETIIKAVENLEPVEGRLEVLDPSLPIDLIIDYAHTADGMNKLIDAVQPFVKQKLIFLVGMAGERDLTKTPEMGRVACRADYVIFTPDNPANDDPKMLKAELAKGATHQNYIEFDDRAEGIKHAIDIAEPGDTVVLASKGREPYQIMPGHIKVPHRDDLIGLEAAYKKFGGGPVDQEG,soluble
7,HMSSLQRASVSFNKPGHIPFGAVQGYAPGGVPAYSNKHDHYFSGERNIEDNIFFGFKYQCVEFARRWLLVRKGLLLPDVNWACHIFQLKEVRDAATTESFAVLQVRNGTTTKPEADALLVYPSTDANPVGHVGTITEVGDDYVCVADQNYRFHKWESSCAYKLKLDHRDGIWTIIDDIDADEIEIPLGWLTFPGRANRPEGAPPVALHPSLHFKEPPKPYLLRRNFLPTESKANWLDMNNPAERLFVEEFGMDVSRTRLEEKVVSYYESNHEFHLRCVAYGTQLHAIFMEATAQVIESDEKLRLFAIPEEFWPRIRHSWKYQQTYISGRFDFAFNNETGEVKCFEYNADSASTLLECGLIQQKWAESVGLDKQDTRGSGFAVERNLKMAWANSGATGRVHFCVDEEREEQYTALYCMQAAEAVGLEGKLCILFDEFRFDDNGHVVDSDGVRVRNVWKTWMWESAITDYYAAREERGENWKPSPKDKVRLCDLLLGDDWEILYFEPMWKVIPSNKAILPMIYHNHPEHPAILKAEYELTDELRKHGYAKKPIVGRVGSNVIITSGDGVVHAESGGKYGKRNMIYQQLFELKKQDDYYAIIGGWMIGDAFSGTGIREDKSVITGVDSPFAAVRIKTDKLPHPVTLKDIDKMAEDE,soluble
8,MMNYNTPKVSIVVPSLNSISYIRECIDSILNQTLKDIEILCIDANSTDGTLEVLKNYEKKDKRLRVIISDKKSYGYQMNLGIKEAKGEYLGIVESDDYIKTNMYERLYEIAKKNDCEVVKGDFYIFAYGKTEYVNVLRNSCEDIYNYKVNWNKDIRIFLGSDGINPIGIYRLDLLRTNQIKLNETPGASYQDNGLWFQIFALAKSIYFINEAFYMLRRDNPNSSVKSKEKVYCACEEYDFIRDFLKKHPDLEKTLAPICALHRFGNYMFTLERIDERYKLDFLKRFSQDFRKILKDKELDENLFGNINMQRINKIIENPVIYYYFSRGARARLQNQLVYRLGKVVVEAKSFNKIIKLPFLMLKICLEHNFEHKVYRSIVQFRPDLKLLPLECYLDYHEALVIKEHLSYKFGKLILLSFKGWYKGKIFILPFMLKKRYKEYKNKMILEHHHHHH,not soluble
9,MAAVDSFQLLYREIARSCSGYVETLALVGACYMASKTVIFMRDCYSLIRLYFVPRLVRHRDLSQQYGQWAIICGASEAIAKAYAEELARHGICVILISKDLSSVSDTARLISNNYGVEAICIEADFNQGPSACKPIKDAISSKDIGFIVNSFDGTLEISQNFLELSESVLWGTIDRNIAATTLVTRLALPAMMERGRGAVVNISSGHCFHPIPRKAAFSASTAFLDNFSRSLQYEYGDQGVFVQSLLPFRVASQRPEGSAPPASWLVPSPQVYASHALSTLGISHRTTGYWPHSMQLGLVKMMPEWVWMLGSRVFTMAT,soluble
10,MSLTVLILRCIMVKSTTRKSAKSDRRRYNRIARFYDLFETPMELMNFRKWRKMLFDLIKAEKGLVLEIGAGTGKNIPHYPSNVVALDISEKMLERAVRRAKESGKKVDFLLADAENLPFRSNSFDVVFTTFVFCSVDDPVRGLREAFRVLKKGGRAYFLEHMLPKSRFLHPLFNLLNPIFRAFGPEINRRTDENIQRAGFQIVKEYMLFGSVFRLIVAEKPLDSVDEASGYSLKRSESSDSSNFRRFIGQSLLPLRLTQLLREGHHHHHH,not soluble
11,MQPYLIPQPGIRVSLSELIEMRHRVREVQLFSTPSRRSPLIGLHHSKLRGRGVDFDQVRVYQAGDDVRSIDWRVTARTQEPHTKLFHEERERPIFILVEQSRRLFFGSGLMFKSVLAAQAAALIGWAALEHNDRVGGLVFGDNEHYEIKPRRSKQSLLQLLNRLVRVNQSLHTEIPADRDAFGTALRRAREVLRPGSLVIVLCDERALSDVAEQQLSLLSRHSDLLLLPLSDPLDRALPAAGLLRFAERGAQLELDTLNPELRRAYRQQGEDRSARWELLAQKLRVLLMPLSTQSELVEQLREYLNAQRPVKRK,not soluble
12,MISIKGTGRFLLDNYRIWQRRAFNRPIQLRKGYKVLAIETSCDDTCVSVLDRFSKSAAPNVLANLKDTLDSIDEGGIIPTKAHIHHQARIGPLTERALIESNAREGIDLICVTRGPGMPGSLSGGLDFAKGLAVAWNKPLIGVHHMLGHLLIPRMGTNGKVPQFPFVSLLVSGGHTTFVLSRAIDDHEILCDTIDIAVGDSLDKCGRELGFKGTMIAREMEKFINQDINDQDFALKLEMPSPLKNSASKRNMLSFSFSAFITALRTNLTKLGKTEIQELPEREIRSIAYQVQESVFDHIINKLKHVLKSQPEKFKNVREFVCSGGVSSNQRLRTKLETELGTLNSTSFFNFYYPPMDLCSDNSIMIGWAGIEIWESLRLVSDLDICPIRQWPLNDLLSVDGWRTDQL,not soluble
13,MGSDKIHHHHHHMIPTIRLHSQQLINPVFNNPKDLVSWMGGIQAQDYTMSKWAIGIRLKAGNLQTVNEALAKGDILRIHVMRPTWHYVAAEDIRWMLKLSSRRIITANDSFAKSRGQDISVDIYNKANRLLEKALAGHNHLTKQEIDNIFKEGGLETNERLSNRFLIHAEAEGLICSGADKNNKITFALLDERVPPIQELHKEEALAILARKYFRSHSPASLKDFVWWSGLSVTEARQGIAAIEQELLTDRFLAQKLYVHQSYKEEKTTDILHILPSYDEYLISYKDRTDVLNKEYQHKAFNSFGIFRPVILYNGQIVGNWNKVIQKQTTHIEMNWFKKNTKIKRELLSLAERKYLTFFSEL,not soluble
14,MATIRDVAKRAGVSVATVSRVLNQNGYVNEETERRVRQAMKELNYKPNEVARALFKKTSKTVGLIVPDITNPFFPELVRAVEDVMNIYDYTVILCNSDEKVEKEREYIEVLKQKYVDGVILTTNQFAPEEVEEWDVPIVVLDRPLHERYPSVVADNYEGARLATRHLYEVGCRRIAHIQGPNHVVNAMERFRGYQDEMRALGLGDRQLVIQGNYQLKQAKEAVMAALAEHDMDGIFAGNDAMAVGALKAVQQCGLRVPDDIAIIGYDGIPLTEMTTPELSTVSQPIYEMGAMAARILIKQIEGKPLEKLHYQLPVQLVVRQSTSRRGLT,soluble
15,MAHHHHHHSLKNTLGRQFSRATETYEKWAVPQRKSAKILVEFVKPSGLVLDLGCGTGFISEFVNDCEVVGLDISEGMAKAYREKFRKVVIGNAENLPFKDRSFDFVLSNFSLHWSDWRKSIREALRVCKNFVGVAIPVYGSVSFSEFPFPKAEEILEEFKPQEFKIINLEIPFRGMELIKFFHYTGTANFTGKKNFKTKRELIKLSKDLEKEYFKVLFLKLKSRAFEG,soluble
16,MDTSLPSAILNNMVTATLILDDGLAIRYANPAAELLFSQSAKRIVEQSLSQLIQHASLDLALLTQPLQSGQSITDSDVTFVVDGRPLMLEVTVSPITWQRQLMLLVEMRKID,soluble
17,MSLASTVVIKEGSGSGAVAACTVPQVLEQIAQSFPESIAAISERGRITFAELEFRSNQLARLLVKRGVKVGAIVVLMTGRSIDTLIGMTAILKAGGVYMPLDVGLGPEAISGAIQDAQPALVLTEHQPALIDAIEQRRLSDELDASRLEPGDPLALELTPSLPAYVMFTSGSTGRPKGVVVPHRAIVRLVVDTDFMTLSPATVMLHAAPLAFDASTLEIWGPLLNGGQIVIVEDAVLSVDRIAETLGRFSVNAAWLTAGLFHLMVDERPEALSGLTTLLAGGDVLSPAHVRRAMALLPDCTIVNGYGPTENTTFTCCYSIPRTGWGDGPVPIGFPISGTSVHILSDTLEPVADGEEGQLCAGGIGLALGYLNRPELTAEKFIVDPLSDDPAARLYLTGDYVRRRSDGAIEFRGRRDRQVKINGVRIELDGVEQALRQDPVLADAAVVLSADRGDAKRIVAFLKPLPGDAAGDLEAGVIRRLKEQFPAQAIPSTIKVVDELPLNKNGKIDRAKLLSDLIATEQLGAGTDEEDFSDDSVGSIVADIWSALLGKSVDARANLFDLGATSLQMIAAHERIQAAIGIRFPVTDLFAHPSIAEFQACLDGASHRSLAIAGAAREGHHHHHH,soluble
